Earlier results in publication PMC3867676.

Legend:
RANKL (Homo sapiens) = RANKL (Homo sapiens) (UniProt O14788)
TRAIL (Homo sapiens) = TRAIL (Homo sapiens) (UniProt P50591)
Sequence of UniProt P50591 (P50591 whole entry): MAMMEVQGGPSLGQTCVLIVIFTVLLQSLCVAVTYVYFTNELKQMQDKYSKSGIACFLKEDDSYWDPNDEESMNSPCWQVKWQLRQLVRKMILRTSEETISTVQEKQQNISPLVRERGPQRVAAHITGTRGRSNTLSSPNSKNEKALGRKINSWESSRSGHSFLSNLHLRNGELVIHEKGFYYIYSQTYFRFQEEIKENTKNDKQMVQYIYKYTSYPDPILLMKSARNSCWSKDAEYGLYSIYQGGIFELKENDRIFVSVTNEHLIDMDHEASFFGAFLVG

Sequence of UniProt O14788 (O14788 140-317): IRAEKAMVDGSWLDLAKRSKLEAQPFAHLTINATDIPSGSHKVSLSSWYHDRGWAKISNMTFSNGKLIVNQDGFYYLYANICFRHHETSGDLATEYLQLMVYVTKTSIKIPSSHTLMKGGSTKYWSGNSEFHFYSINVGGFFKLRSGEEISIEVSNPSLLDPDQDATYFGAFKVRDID

OPG (from UniProt O00300)
Kd (RANKL (Homo sapiens)): 23 nM
Kd (TRAIL (Homo sapiens)): 45 nM
